These results are taken from the RNAGym collection of RNA variant scans (doi:10.1021/acssynbio.7b00057).

B1: Pistol ribozyme (parent)
chain: GGGUCGUUGUUCCAUAAUCGCGUGGAUAUGGCACGCAAGUUUCUACCGGGCACCGUAAAUGUCCGACUGGAGCCGUUCGGGCGGCUAUAAACAGACCUCAGGCCCGAAGCGUGGCGGCACCUGCCGCCGGUGGUAAAAAAGAUCGGAAGAGCACACGUCU

The variants in the series derive from B1. Kind of series: aptazyme ON/OFF ratio, guanine; higher = stronger switching; co-transcriptional cleavage with and without guanine.
Take U10G U11C: the “aptazyme ON/OFF ratio” value worked out at 1.03. As for U10G U11G, the figure is 1.22; as for U10G U11A, 1.12. Then U10C U11G C12U C13G, with 1.33; and U10C U11G C12U C13A, with 1.36. Take U10C U11G C12U C13U: the “aptazyme ON/OFF ratio” value is 1.28. As to U10G U11G C12U C13G, the “aptazyme ON/OFF ratio” value stood at 1.3. Take U10G U11G C12U C13U: the “aptazyme ON/OFF ratio” value was found to be 1.26. Then U10G U11G C12U C13A, with 1.32; and U11A C12G C13G, with 1.18.

As for U11A C12G C13U, the “aptazyme ON/OFF ratio” value amounted to 1.42. As for U11A C12G C13A, the figure is 1.11; as for U11A C12U C13G, 1.37; as for U11A C12U C13A, 1.36. Then U11A C12U C13U, with 1.45; and U11A C12A, with 2.18.

On to U11A C12U, for which the “aptazyme ON/OFF ratio” value was 1.64. Then U11A C12G, with 1.28. Then U10C U11G, with 1.57; and U10C U11C, with 1.06; and U10C U11A, with 1.47.

For U10C U11C C12U C13U, the “aptazyme ON/OFF ratio” value was determined as 1.02. Then U10C U11C C12U C13A, with 1.07; and U10C U11C C12U C13G, with 1.06. Then U11C C12A C13U, with 1.31; and U11C C12A C13A, with 1.53; and U11C C12A C13G, with 1.43.

Take U10C U11C C13U: the “aptazyme ON/OFF ratio” value came out at 1.03. Then U10C U11C C13G, with 1.07. Then U10C U11C C13A, with 1.02; and U10C U11C C12U, with 1.08. As for U10C U11C C12A, the figure is 1.27. On to U10C U11C C12G, for which the “aptazyme ON/OFF ratio” value amounted to 1.07. As for U10C U11A C12U C13A, the figure is 1.38.

Turning to U10C U11A C12U C13U, the “aptazyme ON/OFF ratio” value turned out to be 1.19. Then U10C U11A C12U C13G, with 1.32. Then U10G C12G C13A, with 1.17; and U10G C12G C13G, with 1.09. As to U10G C12G C13U, the “aptazyme ON/OFF ratio” value came to 1.34.

As to U10G U11C C12G C13A, the “aptazyme ON/OFF ratio” value came out at 1.28. Then U10G U11C C12G C13G, with 1.14; and U10G U11C C12G C13U, with 1.48; and U10C U11C C12G C13U, with 1.11. Then U10C U11C C12G C13G, with 1.16; and U10C U11C C12G C13A, with 1.17; and U11A C13A, with 1.26. Then U11A C13G, with 1.12; and U11A C13U, with 1.29; and U11C, with 1.53. For the variant U11G, the “aptazyme ON/OFF ratio” value worked out at 1.22. In the case of U11A, the “aptazyme ON/OFF ratio” value came out at 1.84. As for U10G, the figure is 1.88; as for U10C U11C C12A C13U, 1.08; as for U10C U11C C12A C13A, 1.19. As for U10C U11C C12A C13G, the figure is 1.17. As for U10G U11G C13G, the figure is 1.21; as for U10G U11G C13A, 1.26. As for U10G U11G C13U, the “aptazyme ON/OFF ratio” value was 1.16. As for U11C C12A, the figure is 1.43; as for U11C C12G, 1.55. As for U11C C12U, the “aptazyme ON/OFF ratio” value worked out at 1.57. Then U10G U11C C12A C13A, with 1.23.

U10G U11C C12A C13G: the “aptazyme ON/OFF ratio” value came out at 1.12. Then U10G U11C C12A C13U, with 1.4; and U11G C12U C13A, with 1.1; and U11G C12U C13U, with 1.11. Then U11G C12U C13G, with 1.04; and U10G U11G C12G, with 1.4. U10G U11G C12A: the “aptazyme ON/OFF ratio” value came to 1.37. As for U10G U11G C12U, the figure is 1.38; as for U10C C12U C13G, 1.1; as for U10C C12U C13U, 1.21. Consider U11A C12A C13U, for which the “aptazyme ON/OFF ratio” value was 1.47. For U11A C12A C13A, the “aptazyme ON/OFF ratio” value came to 1.59. In the case of U11A C12A C13G, the “aptazyme ON/OFF ratio” value was 1.53.

Turning to U11C C13U, the “aptazyme ON/OFF ratio” value was 1.24.

For U11C C13G, the “aptazyme ON/OFF ratio” value was 1.07. U11C C13A: the “aptazyme ON/OFF ratio” value stood at 1.2. As for U10C U11A C12G C13U, the figure is 1.37.

On to U10C U11A C12G C13A, for which the “aptazyme ON/OFF ratio” value came out at 1.29.

Regarding U10C U11A C12G C13G, the “aptazyme ON/OFF ratio” value amounted to 1.25. Then U11C C12G C13A, with 1.46; and U11C C12G C13G, with 1.49; and U11C C12G C13U, with 1.33. As for U10C C13G, the figure is 1.05. Then U10C C13A, with 1.06. For the variant U10C C13U, the “aptazyme ON/OFF ratio” value amounted to 1.08. As for U10G U11G C12G C13A, the figure is 1.1. Then U10G U11G C12G C13U, with 1.26; and U10G U11G C12G C13G, with 1.18. As for U10C U11G C13A, the figure is 1.27; as for U10C U11G C13G, 1.22; as for U10C U11G C13U, 1.35. Turning to U10G U11A C12U C13U, the “aptazyme ON/OFF ratio” value was 1.36.

As to U10G U11A C12U C13A, the “aptazyme ON/OFF ratio” value came out at 1.28.

Regarding U10G U11A C12U C13G, the “aptazyme ON/OFF ratio” value came out at 1.2.

On to U10G C12G, for which the “aptazyme ON/OFF ratio” value turned out to be 1.12. As for U10G C12U, the figure is 1.58; as for U10G C12A, 1.41; as for U11C C12U C13G, 1.43. As for U11C C12U C13U, the figure is 1.52. Then U11C C12U C13A, with 1.4. For U10C U11G C12G C13U, the “aptazyme ON/OFF ratio” value is 1.11. Then U10C U11G C12G C13G, with 1.23. Then U10C U11G C12G C13A, with 1.24. Then U10G C12U C13U, with 1.15.

As for U10G C12U C13G, the “aptazyme ON/OFF ratio” value came out at 1.28. As for U10G C12U C13A, the figure is 1.33; as for U10G U11A C12U, 1.15.

Regarding U10G U11A C12A, the “aptazyme ON/OFF ratio” value was determined as 1.39. Then U10G U11A C12G, with 1.4; and C12A C13A, with 1.34. As for U10G C13G, the figure is 1.32; as for U10G C13U, 1.5. Then U10G C13A, with 1.13; and U10C U11A C13A, with 1.25; and U10C U11A C13G, with 1.08.

As to U10C U11A C13U, the “aptazyme ON/OFF ratio” value came to 1.23. As for U10C U11A C12A C13U, the “aptazyme ON/OFF ratio” value is 1.35. As for U10C U11A C12A C13G, the figure is 1.36. As for U10C U11A C12A C13A, the figure is 1.37; as for U10C U11A C12A, 1.48.

Take U10C U11A C12G: the “aptazyme ON/OFF ratio” value was determined as 1.47. Take U10C U11A C12U: the “aptazyme ON/OFF ratio” value stood at 1.45. As for U10G U11G C12A C13U, the figure is 1.22; as for U10G U11G C12A C13G, 1.11. As for U10G U11G C12A C13A, the figure is 1.15. Take U10G C12A C13G: the “aptazyme ON/OFF ratio” value turned out to be 1.06. Consider U10G C12A C13A, for which the “aptazyme ON/OFF ratio” value turned out to be 1.25. In the case of U10G C12A C13U, the “aptazyme ON/OFF ratio” value was 1.19.

Turning to U10G U11A C12A C13U, the “aptazyme ON/OFF ratio” value was found to be 1.27. For U10G U11A C12A C13A, the “aptazyme ON/OFF ratio” value is 1.11. As for U10G U11A C12A C13G, the figure is 1.06; as for U10G U11A C12G C13U, 1.33; as for U10G U11A C12G C13A, 1.16. Consider U10G U11A C12G C13G, for which the “aptazyme ON/OFF ratio” value was determined as 1.34. As for U10C U11G C12A C13U, the figure is 1.3; as for U10C U11G C12A C13A, 1.27; as for U10C U11G C12A C13G, 1.31.

With U11G C12A C13G, the “aptazyme ON/OFF ratio” value was 1.22. Then U11G C12A C13A, with 1.14; and U11G C12A C13U, with 1.24. Then U10G U11C C12U C13A, with 1.2; and U10G U11C C12U C13G, with 1.27; and U10G U11C C12U C13U, with 1.11. Then U11G C12G C13G, with 1.27; and U11G C12G C13A, with 1.2; and U11G C12G C13U, with 1.32. As to U11G C13G, the “aptazyme ON/OFF ratio” value came to 1.03. As for U11G C13U, the figure is 1.06; as for U11G C13A, 1.05; as for U10G U11C C13G, 1.04.

On to U10G U11C C13A, for which the “aptazyme ON/OFF ratio” value is 1.05. Then U10G U11C C13U, with 1.04; and U10C U11G C12A, with 1.1; and U10C U11G C12U, with 1.31.

For U10C U11G C12G, the “aptazyme ON/OFF ratio” value came out at 1.25. As for U11G C12U, the figure is 1.29; as for U11G C12G, 1.34. Take U11G C12A: the “aptazyme ON/OFF ratio” value turned out to be 1.11. As for U10G U11A C13A, the figure is 1.15.

As to U10G U11A C13U, the “aptazyme ON/OFF ratio” value came to 1.05. As for U10G U11A C13G, the figure is 1.12; as for U10G U11C C12A, 1.51.

U10G U11C C12G: the “aptazyme ON/OFF ratio” value was 1.43. As for U10G U11C C12U, the figure is 1.08; as for C12A, 1.76.
